The supplement of paper PMC7877785
± gives the uncertainty stated by the source.

Test: self-splicing fitness, log relative to wild type (ln ratio); higher = more splicing; Tetrahymena group I intron in knt gene, E. coli kanamycin selection, DiMSum; sequences stand for … in CUCUCU…GGAGGGAAAAGUUAUCAGGCAUGCACCUGGUAGCUAGUCUUUAAACCAAUAGAUUGCAUCGGUUUAAAAGGCAAGACCGUCAAAUUGCGGGAAAGGGGUCAACAGCCGUUCAGUACCAAGUCUCAGGGGAAACUUUGAGAUGGCCUUGCAAAGGGUAUGGUAAUAAGCUGACGGACAUGGUCCUAACCACGCAGCCAAGUCCUAAGUCAACAGAUCUUCUGUUGAUAUGGAUGCAGUUCACAGACUAAAUGUCGGUCGGGGAAGAUGUAUUCUUCUCAUAAGAUAUAGUCGGACCUCUCCUUAAUGGGAGCUAGCGGAUGAAGUGAUGCAACACUGGAGCCGCUGGGAACUAAUUUGUAUGCGAAAGUAUAUUGAUUAGUUUUGGAGUACUCGUGGUCG
Summary of the method: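 The eight P1ex-region nucleotides of an intron in the knt kanamycin-resistance gene on pET-22b(+) were all randomised and the library put into E. coli BL21(DE3). Six replicate transformations were grown overnight at 37°C or 30°C on LB agar with or without 25 μg/mL kanamycin, together with 100 μg/mL carbenicillin, 50 μM IPTG and 0.2% rhamnose. Colonies were pooled and amplicon-sequenced on an Illumina HiSeq 2500. Fitness from DiMSum is the error-weighted combination of wild-type-normalised replicate fold changes, kanamycin over none.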

Row | Sequence | self-splicing fitness (ln) (30 °C) | self-splicing fitness (ln) (37 °C)
1 | GCAGAGCAAUAUUACGGGCA | -2.97 ± 0.17 | -1.67 ± 0.15
2 | AAUGAGCAAUAUUACGGUGC | -3.37 ± 0.23 | -3.03 ± 0.27
3 | GUAAAGCAAUAUUACGGGGG | -3.31 ± 0.18 | -2.87 ± 0.31
4 | AAUCAGCAAUAUUACGGCCA | -0.515 ± 0.11 | -0.146 ± 0.12
5 | GGAGAGCAAUAUUACGUGUC | -3.21 ± 0.26 | -1.46 ± 0.24
6 | CCGUAGCAAUAUUACGUGUU | -3.35 ± 0.2 | -2.47 ± 0.18
7 | GAACAGCAAUAUUACGAAGC | -1.37 ± 0.1 | -1.14 ± 0.13
8 | ACAUAGCAAUAUUACGCCUA | -1.7 ± 0.24 | -0.307 ± 0.2
9 | UUAAAGCAAUAUUACGACCG | -0.379 ± 0.12 | 0.397 ± 0.16
10 | CGCUAGCAAUAUUACGACUA | -2.81 ± 0.16 | -2.52 ± 0.23
11 | CUCUAGCAAUAUUACGCGCU | -2.55 ± 0.3 | -3.61 ± 0.27
12 | CACGAGCAAUAUUACGGGGC | -3.02 ± 0.14 | -2.42 ± 0.19
13 | UUAAAGCAAUAUUACGGGUU | -3.04 ± 0.15 | -1.46 ± 0.13
14 | ACAAAGCAAUAUUACGGUCC | -1.7 ± 0.11 | -0.977 ± 0.16
15 | UGAUAGCAAUAUUACGUGUC | -3.92 ± 0.28 | -2.49 ± 0.26
16 | CGUCAGCAAUAUUACGAGUG | -0.944 ± 0.056 | -0.00372 ± 0.077
17 | GAAUAGCAAUAUUACGGCUG | -0.443 ± 0.083 | -0.941 ± 0.1
18 | UUAUAGCAAUAUUACGACUC | -1.94 ± 0.19 | -1.94 ± 0.24
19 | AACUAGCAAUAUUACGCGUA | -1.19 ± 0.09 | -0.289 ± 0.083
20 | GUACAGCAAUAUUACGCUUA | -1.58 ± 0.08 | -1.03 ± 0.091
21 | UUCGAGCAAUAUUACGACAA | -0.778 ± 0.23 | 0.45 ± 0.23
22 | CGACAGCAAUAUUACGGUCG | -3.33 ± 0.14 | -2.48 ± 0.15
23 | GUACAGCAAUAUUACGCACA | -1.52 ± 0.11 | -0.471 ± 0.11
24 | GUUAAGCAAUAUUACGCAUA | -0.993 ± 0.091 | -0.274 ± 0.11
25 | AAGAAGCAAUAUUACGUAUA | -2.18 ± 0.14 | -1.17 ± 0.15
26 | AAGCAGCAAUAUUACGGGGC | -3.15 ± 0.23 | -2.54 ± 0.24

Row | Sequence | self-splicing fitness (ln) (30 °C) | self-splicing fitness (ln) (37 °C)
27 | GUUAAGCAAUAUUACGUCCC | 0.552 ± 0.49 | –
28 | CCUUAGCAAUAUUACGGCAU | -3.41 ± 0.19 | -2.88 ± 0.32
29 | CGCUAGCAAUAUUACGAAUC | -3.64 ± 0.21 | -0.947 ± 0.15
30 | GUGCAGCAAUAUUACGUGUG | -2.95 ± 0.11 | -1.33 ± 0.1
31 | UCAGAGCAAUAUUACGCGGA | -2.96 ± 0.33 | -1.64 ± 0.17
32 | GGUUAGCAAUAUUACGGCAC | -0.473 ± 0.15 | -0.251 ± 0.18
33 | CUGAAGCAAUAUUACGUCUG | 0.302 ± 0.069 | 0.352 ± 0.08
34 | UUCAAGCAAUAUUACGUGUC | -2.84 ± 0.11 | -2.45 ± 0.14
35 | UUCCAGCAAUAUUACGAGUA | -1.12 ± 0.07 | 0.0282 ± 0.078
36 | CGGAAGCAAUAUUACGGAUC | -3.97 ± 0.37 | -2.04 ± 0.27
37 | CGCCAGCAAUAUUACGUUUA | -3.18 ± 0.15 | -2.83 ± 0.17
38 | GACGAGCAAUAUUACGGCAC | -2.53 ± 0.18 | -1.62 ± 0.16
39 | CGACAGCAAUAUUACGGCGC | -3.37 ± 0.24 | -0.977 ± 0.15
40 | GAUGAGCAAUAUUACGGGUA | -3.19 ± 0.27 | -1.02 ± 0.17
41 | AAGUAGCAAUAUUACGGACC | – | -0.466 ± 0.37
42 | UCUCAGCAAUAUUACGAAAC | -2.16 ± 0.26 | -2.29 ± 0.5
43 | UGUAAGCAAUAUUACGGAUC | -1.45 ± 0.18 | -0.457 ± 0.36
44 | AAAGAGCAAUAUUACGAGAC | -3.51 ± 0.35 | -2.11 ± 0.27
45 | UCCGAGCAAUAUUACGGUCG | -3.68 ± 0.47 | -2 ± 0.45
46 | CUAAAGCAAUAUUACGACAU | -3.986 ± 0.024 | -2.72 ± 0.039
47 | AUGCAGCAAUAUUACGUUGA | -2.97 ± 0.14 | -2.41 ± 0.12
48 | CUCCAGCAAUAUUACGAGUC | -3.83 ± 0.34 | -2.15 ± 0.26
49 | GAUUAGCAAUAUUACGUGUC | -2.86 ± 0.27 | -2.28 ± 0.26
50 | AGAGAGCAAUAUUACGAGUG | – | -2.15 ± 0.34
51 | CCUCAGCAAUAUUACGAGUG | -2.34 ± 0.14 | -0.953 ± 0.14
52 | ACAGAGCAAUAUUACGUAAC | -2.71 ± 0.11 | -3.27 ± 0.26

Row | Sequence | self-splicing fitness (ln) (30 °C) | self-splicing fitness (ln) (37 °C)
53 | GAUAAGCAAUAUUACGAAUC | -3.17 ± 0.25 | -2.16 ± 0.25
54 | GCCUAGCAAUAUUACGGUCG | -3.36 ± 0.2 | -2.5 ± 0.25
55 | GACCAGCAAUAUUACGUACC | -0.415 ± 0.08 | -0.106 ± 0.098
56 | UCGCAGCAAUAUUACGCCCU | -1.18 ± 0.13 | -0.902 ± 0.15
57 | CGCUAGCAAUAUUACGGGUA | -0.542 ± 0.11 | -0.011 ± 0.12
58 | UUAGAGCAAUAUUACGUAUU | -5.06 ± 0.45 | -2.91 ± 0.35
59 | GAAAAGCAAUAUUACGGUCA | -0.479 ± 0.067 | 0.0562 ± 0.073
60 | CGGUAGCAAUAUUACGUUGC | -2.1 ± 0.14 | -2.85 ± 0.33
61 | AGUUAGCAAUAUUACGUCCA | -0.989 ± 0.16 | -0.0648 ± 0.18
62 | AGUUAGCAAUAUUACGUGUU | -3.25 ± 0.15 | -1.52 ± 0.14
63 | CGCCAGCAAUAUUACGCAUA | -3.34 ± 0.24 | -1.86 ± 0.2
64 | GCCCAGCAAUAUUACGGUCC | -3.39 ± 0.18 | -1.97 ± 0.28
65 | GAUGAGCAAUAUUACGACUG | -3.11 ± 0.44 | –
66 | ACGAAGCAAUAUUACGCAAU | -1.6 ± 0.091 | -1.42 ± 0.094
67 | AUAGAGCAAUAUUACGGGCG | -3 ± 0.22 | -2.13 ± 0.31
68 | AAUCAGCAAUAUUACGUUAG | -3.15 ± 0.2 | -2.86 ± 0.23
69 | UCACAGCAAUAUUACGGCAA | -1.38 ± 0.1 | -1.42 ± 0.097
70 | UAUCAGCAAUAUUACGCCCG | -0.133 ± 0.098 | -0.202 ± 0.13
71 | UAGAAGCAAUAUUACGGGAG | -1.97 ± 0.14 | -1.39 ± 0.12
72 | AUCUAGCAAUAUUACGAUAG | -2.36 ± 0.33 | -1.16 ± 0.44
73 | CCCAAGCAAUAUUACGAGAC | -3.64 ± 0.21 | -1.4 ± 0.17
74 | AAGUAGCAAUAUUACGAUGU | -1.23 ± 0.1 | -0.476 ± 0.12
75 | GUCAAGCAAUAUUACGCAGA | -3.23 ± 0.24 | -2.79 ± 0.3
76 | ACCUAGCAAUAUUACGGUCA | -1.74 ± 0.091 | -0.306 ± 0.082
